Results on 2 molecules are retold here after patent US20230121197A1, “ANTIBODIES SPECIFICALLY BINDING THE CARBOXYMETHYLATED CATALYTIC SUBUNIT OF PROTEIN PHOSPHATASE 2A” (Medizinische Universität Wien, priority 2020, published 2023).

No end group written: not given here.

One experiment relates to PP4. Kind of experiment: Summary of cross-reactivities of C-terminal PP2Ac antibodies (Table 4), PP4. Conditions: antibodies screened for binding methylated PP2Ac. An excerpt:
Examples of antibodies with a preference for non-methylated PP2Ac are mouse monoclonal antibody 4B7 (Yu (2001), Mol Biol Cell 12, 185-199), mouse monoclonal antibody 1D7 generated by the Ogris lab but also the rabbit monoclonal E155 antibody from Abeam and the mouse monoclonal F-8 from SCBT that were thought to be specific for pTyr^307.

Experiment [1] has as its target PP2Ac C-terminal peptide pT304-meL309, ac-HVTRRpTPDYFL-CH3 (human). Kind of experiment: ELISA, peptide dilution series, supernatant 1:50.
For experiment [2], the target named is T1, PP6c C-terminal peptide L305, ac-IPPRTTTPYFL (non-methylated) (human).
T1 construct: also called PP6 L305
T1 peptide: Ac-IPPRTTTPYFL
Kind of experiment: ELISA, values normalized to meL309, Neg = TBS only, N=7. An excerpt: FIG. 9: Monoclonal antibody 7C10-C5 detects α-carboxymethylated PP2Ac C-terminal peptides with >10-fold higher signal intensity than the α-carboxymethylated PP4c and PP6c C-terminal peptides in ELISA. Nunc Medisorp 96-well ELISA flat-bottom plates were coated with PP2Ac peptides L309 (ac-[…]) (SEQ ID NO:18), meL309 (ac-[…]-CH3) (SEQ ID NO:18), PP4c peptides L307 (ac-[…]) (SEQ ID NO:20), meL307 (ac-[…]-CH₃) (SEQ ID NO:20), PP6c peptides L305 (ac-[…]) (SEQ ID NO:22) or meL305 (ac-[…]-CH₃) (SEQ ID NO:22) at 2 μg/ml in TBS or TBS only (Neg) at 4° C. over-night. After washing once with TBS, the wells were incubated with 2% BSA in TBS for 1 h at RT. After washing once with TBS, the wells were incubated with single clone hybridoma cell culture supernatant, clone 7C10-C5 1:50 for 1 h at RT. After washing twice with TBS, wells were incubated with anti-mouse and anti rabbit HRP-coupled secondary antibody for 1 h at RT, followed by washing 3× in PBS. Bound antibodies were detected by colorimetric reaction with 3,3′,5,5′-Tetramethylbenzidine as substrate, and absorbance was measured at 450 nm. Values were normalized to meL309 which was set to 1. Average and standard deviation of N=7 experiments are shown. […] Statistical significance was assessed using ANOVA followed by Tukey's HSD as a post-hoc test. […]

B1: 7C10-C5: α-carboxymethylation specific mouse monoclonal IgG1 antibody from single clone hybridoma 7C10-C5 (DSM ACC3350) (antibody)
heavy: MYRMQLLSCIALSLALVTNSDVQLQESGPGLVKPSQSLSLTCSVTGYSITSGYYWNWIRQFPGNKLEWMGYISYDGSNNYNPSLKNRISITRDTSKNQFFLKLNSVTTEDTATYYCAGRFAYWGQGTLVTVSAAKTTAPSVYPLAPVCGDTTGSSVTLGCLVKGYFPEPVTLTWNSGSLSSGVHTFPAVLQSDLYTLSSSVTVTSSTWPSQSITCNVAHPASSTKVDKKIEPRGPTIKPCPPCKCPAPNLLGGPSVFIFPPKIKDVLMISLSPIVTCVVVDVSEDDPDVQISWFVNNVEVHTAQTQTHREDYNSTLRVVSALPIQHQDWMSGKEFKCKVNNKDLPAPIERTISKPKGSVRAPQVYVLPPPEEEMTKKQVTLTCMVTDFMPEDIYVEWTNNGKTELNYKNTEPVLDSDGSYFMYSKLRVEKKNWVERNSYSCSVVHEGLHNHHTTKSFSRTPGK
light: MDMRVPAQLLGLLLLWLSGARCDVLMTQTPLSLPVSLGDQASISCRSSQSIVHSNGNTYLEWYLQKPGQSPKLLIYKVSNRFSGVPDRFSGSGSGTDFTLKINRVEAEDLGVYYCFQGSHVPWTFGGGTKLEIKADAAPTVSIFPPSSEQLTSGGASVVCFLNNFYPKDINVKWKIDGSERQNGVLNSWTDQDSKDSTYSMSSTLTLTKDEYERHNSYTCEATHKTSTSPIVKSFNRNEC
modifications: Amino acid sequence of the recombinant 7C10-C5 heavy chain; Amino acid sequence of the recombinant 7C10-C5 light chain
For B1, the “PP4 meLeu^307” value in the experiment with PP4 was “— (— <15%)”.

B2: 7C10-C5 monoclonal antibody (antibody, V domains shown)
VH: DVQLQESGPGLVKPSQSLSLTCSVTGYSITSGYYWNWIRQFPGNKLEWMGYISYDGSNNYNPSLKNRISITRDTSKNQFFLKLNSVTTEDTATYYCAGRFAYWGQGTLVTVSA
VL: DVLMTQTPLSLPVSLGDQASISCRSSQSIVHSNGNTYLEWYLQKPGQSPKLLIYKVSNRFSGVPDRFSGSGSGTDFTLKINRVEAEDLGVYYCFQGSHVPWTFGGGTKLEIK
notes: Used as hybridoma culture supernatant (ELISA, Western blot, IHC) or at 50 µg/mL (SPR); also called 7C10 X63; clone 7C10-C5
B2 returned a fold detection difference against the carboxymethylated peptide (meL309) at lower peptide concentrations in experiment [1] of 4 fold. The binding result in experiment [2] is recorded as “no binding”.
